B1: library; numbered along this chain (parent)
chain: MRKPRAAVGSGHRKQAASQEGRQKHAKNNSQAKPSACDGLARQPEEVVLQASVSSYHLFRDVAEVTAFRGSLLSWYDQEKRDLPWRRRAEDEMDLDRRAYAVWVSEVMLQQTQVATVINYYTGWMQKWPTLQDLASASLEEVNQLWAGLGYYSRGRRLQEGARKVVEELGGHMPRTAETLQQLLPGVGRYTAGAIASIAFGQATGVVDGNVARVLCRVRAIGADPSSTLVSQQLWGLAQQLVDPARPGDFNQAAMELGATVCTPQRPLCSQCPVESLCRARQRVEQEQLLASGSLSGSPDVEECAPNTGQCHLCLPPSEPWDQTLGVVNFPRKASRKPPREESSATCVLEQPGALGAQILLVQRPNSGLLAGLWEFPSVTWEPSEQLQRKALLQELQRWAGPLPATHLRHLGEVVHTFSHIKLTYQVYGLALEGQTPVTTVPPGARWLTQEEFHTAAVSTAMKKVFRVYQGQQPGTCMGSKRSQVSSPCSRKKPRMGQQVLDNFFRSHISTDAHSLNSAAQ

Variants of: B1
Assay: 8OG:A repair function score (normalized; synonymous = 0, nonsense = -1) (normalized log-likelihood score); higher = more repair activity (WT-like)
Settings: with 8OG:A DNA repair reporter (GFP) in HEK-293 MUTYH KO cells
Method: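 Saturation mutagenesis (NNN codon scan) of the MUTYH cDNA (521-aa nuclear isoform NM_001048174.1 / NP_001041639), stably expressed under doxycycline induction in HEK-293 MUTYH knockout cells. Cells were co-transfected with an 8OG:A-bearing GFP repair reporter plus mCherry and sorted 72 h later into GFP+ and GFP− bins, three replicates per tile. The Rosace log2 enrichment (GFP+ vs GFP−) was converted per tile to a normalized function score with synonymous variants centered at 0 and nonsense variants (codons 1-471) at -1; low-abundance variants were removed.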

| Variant | 8OG:A repair function score |
| --- | --- |
| D512W | -0.023 |
| V284Q | -0.0561 |
| L387Q | 0.0651 |
| L95H | -0.053 |
| R60F | -0.0889 |
| Q282Y | -0.0373 |
| T66K | -0.0706 |
| H420S | -0.494 |
| E385W | 0.109 |
| S270K | -0.0187 |
| L396I | -0.113 |
| L396E | -1.07 |
| T417V | 0.0389 |
| Q159A | -0.0252 |
| V500H | 0.0251 |
| V500F | -0.0131 |
| L430W | 0.0653 |
| S74G | -0.00226 |
| G297N | -0.00835 |
| N119H | 0.126 |
| D96N | -0.00561 |
| D96V | -0.431 |
| R482I | -0.00811 |
| A203W | -0.183 |

| Variant | 8OG:A repair function score |
| --- | --- |
| P402G | -0.274 |
| V427H | -1.08 |
| K3R | -0.0184 |
| A400W | -0.139 |
| Y151K | -0.808 |
| Q484D | -0.0184 |
| Q358C | 0.0229 |
| V438N | 0.103 |
| V165F | -0.802 |
| S138V | -0.188 |
| S138L | -0.279 |
| Q111H | -0.591 |
| Q111F | -1.08 |
| C304I | -0.257 |
| C304D | -0.518 |
| M255D | -1.03 |
| K127G | -0.408 |
| A223Q | -0.0573 |
| H454Q | -0.0422 |
| L134T | -0.714 |
| C477L | 0.0205 |
| Q397I | -0.624 |
| L237D | -0.692 |
| E45H | 0.0965 |

| Variant | 8OG:A repair function score |
| --- | --- |
| V107R | -0.87 |
| V107H | -0.608 |
| G412P | -0.295 |
| G412F | -0.473 |
| G412L | -0.855 |
| G412M | -0.67 |
| W447E | -1.14 |
| W447K | -0.937 |
| E375C | -0.342 |
| E375A | -0.313 |
| D77N | -0.122 |
| G475K | 0.0247 |
| G475N | 0.0259 |
| G475Q | -0.00214 |
| G475H | -0.0609 |
| A254M | 0.317 |
| S487Q | -0.00246 |
| V414T | -0.0984 |
| H57Y | -0.569 |
| P267H | -0.87 |
| R332L | -0.109 |
| L215A | -0.788 |
| Q363Y | -0.408 |
| A63Y | -0.056 |

| Variant | 8OG:A repair function score |
| --- | --- |
| A63N | -0.101 |
| Q265M | -0.0825 |
| S344H | 0.0531 |
| H508V | -0.0097 |
| K464S | -0.198 |
| K464T | -0.351 |
| E341K | -0.0881 |
| S510Y | -0.0344 |
| L448G | -0.516 |
| Q310F | -0.0295 |
| Q310C | 0.0147 |
| E160P | -0.814 |
| S52Y | 0.0053 |
| S518A | 0.00286 |
| S518C | -0.0625 |
| A162L | -1 |
| L184V | -0.238 |
| L373S | -0.647 |
| L373P | -1.03 |
| L501T | -0.0124 |
| L501I | -0.0198 |
| L501P | 0.0273 |
| L501V | 0.00157 |
| P365T | -0.334 |

| Variant | 8OG:A repair function score |
| --- | --- |
| R283T | -0.308 |
| Q435E | -0.132 |
| Q435M | 0.051 |
| S483I | -0.00113 |
| E303Q | 0.0405 |
| Y121E | -1.92 |
| Q498I | 0.0195 |
| P244S | -0.232 |
| P244Q | -0.604 |
| G205S | -0.352 |
| D208E | -0.991 |
| C269L | -1.21 |
| C269E | -1.16 |
| T424H | -0.235 |
| Q182T | -0.0374 |
| L516I | 0.0106 |
| L158K | -1.19 |
| R398H | 0.0204 |
| R398I | -0.416 |
| R86Y | -1.03 |
| N517C | -0.0105 |
| S343R | 0.0819 |
| T476C | -0.0603 |
| T460F | -0.157 |

| Variant | 8OG:A repair function score |
| --- | --- |
| L149R | -0.729 |
| L149K | -1.17 |
| C347W | -1.21 |
| A192D | -0.927 |
| A192P | -1.17 |
| A192C | -0.572 |
| Y425S | -0.31 |
| G193Y | -0.241 |
| T260A | -0.056 |
| Q470P | -0.426 |
| Q470Y | -0.0671 |
| F376V | -0.809 |
| V53I | -0.0188 |
| V53W | -0.276 |
| E106W | -1.04 |
| E106P | -1.62 |
| G293F | -0.0692 |
| P474H | 0.0269 |
| Q426R | -0.143 |
| S231P | -0.683 |
| G248P | -0.995 |
| L408S | -0.483 |
| A199Q | -1.11 |
| A199I | -0.536 |

| Variant | 8OG:A repair function score |
| --- | --- |
| T191H | -0.486 |
| L325R | -0.00254 |
| A135N | -0.227 |
| Q110F | -1.24 |
| S459H | -0.136 |
| K390D | 0.0762 |
| S335R | -0.0718 |
| S335Q | -0.044 |
| S227P | -0.658 |
| Q521W | 0.00491 |
| Q521L | -0.0455 |
| Q521V | -0.0096 |
| Q239R | -0.232 |
| Y152V | -0.573 |
| E92S | -0.0176 |
| N210M | -0.923 |
| Q202C | 0.0136 |
| Q394Y | -0.129 |
| V328K | 0.0221 |
| Q323D | 0.0164 |
| Q323T | 0.0271 |
| A280M | -0.582 |
| S153E | -0.117 |

— the supplement of paper PMC11908140
